Test results reported in US20200347144A1 (SHANGHAI HYAMAB BIOTECH, published 2020).
Changes are numbered by the printed parent chain. Each block holds one binder with its values, some of them ahead of it.

Key:
[1] = biological target: T1, hFc-tagged human 4-1BB extracellular domain protein (4-1BB-hFc) (human, UniProt Q07011 24-186, limits assumed); assay: ELISA, coated human 4-1BB-hFc; Ab 2 ug/ml
T1 construct: also called immunogen A; 4-1BB^ECD-hFc; not shown: human IgG Fc fragment (hFc) of the pCpC vector
Method: (§1) The purified immunogen A (4-1BB-hFc), monkey 4-1BB-his, and mouse 4-1BB-his obtained in Example 1 [for the preparation method, see step 1 of Example 1, preparation of immunogen A], of which the extracellular domain of monkey-derived 4-1BB protein (purchased from ACRO biosystems), the extracellular domain of mouse 4-1BB protein (purchased from sino biological) or other immune detection point proteins respectively were diluted with PBS to a final concentration of 1.0 μg/mL, then added with […] per well to 96-well ELISA plate. It was sealed with plastic film and incubated at 4° C. overnight. The next day, the plate was washed twice with the plate-washing solution [PBS containing 0.01% (v/v) Tween20] and blocking solution [PBS containing 0.01% (v/v) Tween 20 and 1% (v/v) BSA] was added and blocked at room temperature for 2 hours. The blocking solution was discarded and 100 μl of the purified 4-1BB antibody obtained in Example 2 was added per well. After incubated at 37° C. for 2 hours, the plate was washed 3 times with a plate-washing solution [PBS containing 0.01% (v/v) Tween20]. A secondary antibody (purchased from Sigma) labeled with HRP (horseradish peroxidase) was added, and after incubated at 37° C. for 2 hours, the plate was washed 3 times with a plate-washing solution [PBS containing 0.01% (v/v) Tween20]. 100 μl of TMB substrate was added per well. After incubated for 30 minutes at room temperature, 100 μl of stop buffer (1.0N HCl) was added per well. The A450 nm values were read using an ELISA plate reader (SpectraMax 384plus, Molecular Device).

monkey 4-1BB-his protein [2] = biological target: T2, monkey 4-1BB-his protein (monkey); assay: ELISA, coated monkey 4-1BB-his; Ab 0.0032 ug/ml
T2 construct: extracellular domain; Bought protein; also called extracellular domain of monkey-derived 4-1BB protein
Method: as §1

[3] = biological target: T3, human 4-1BB, full length, on transfected cells (human, UniProt Q07011 24-255); assay: FACS, CHOK1-h4-1BB cells; Ab 0.08 ug/ml
T3 construct: whole, on cells; also called CHOK1-h4-1BB
T3 sequence (Q07011 24-255): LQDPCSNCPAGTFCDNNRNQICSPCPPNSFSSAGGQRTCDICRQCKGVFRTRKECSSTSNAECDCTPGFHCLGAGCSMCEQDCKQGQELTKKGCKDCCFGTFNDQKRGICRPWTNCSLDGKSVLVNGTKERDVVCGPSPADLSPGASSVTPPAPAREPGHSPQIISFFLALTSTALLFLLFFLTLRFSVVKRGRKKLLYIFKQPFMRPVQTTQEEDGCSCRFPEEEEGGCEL
Text: (§2) The pIRES plasmid carrying the full-length gene of monkey-derived […] (the preparation method is the same as the preparation method of the pCpC vector carrying the human-derived IgG Fc fragment (hFc) in “Preparation of immunogen A” of the step (1) in Example 1, in which the database accession number of the amino acid sequence of the extracellular region of monkey 4-1BB protein (Phe19-Thr239) is G7PSE7) was transfected into CHOK1 cell line to obtain CHOK1 stable transfected cell line containing monkey 4-1BB (herein referred to as CHOK1-c4-1BB stable cell line). The CHOK1-h4-1BB stable cell line and the CHOK1-c4-1BB stable cell line were expanded and cultivated to 90% confluence in T-75 cell culture flasks. The medium was exhausted, and washed twice with HBSS buffer (Hanks Balanced Salt Solution, purchased from Invitrogen), and then the cells were treated and collected with enzyme-free cell dissociation solution (Versene solution, purchased from Life Technology). The cells were washed twice with HBSS buffer, and after cell counting, the cells were diluted with HBSS buffer to 2×10⁶ cells per ml, and 1% goat serum blocking solution was added, the percentage being the mass percentage. It was incubated on ice for 30 minutes, and then washed twice with HBSS buffer by centrifugation. The collected cells were suspended in FACS buffer (HBSS containing 1% BSA, the percentage was the mass percentage) to 2×10⁶ cells/mL, and 100 μl per well was added to a 96-well FACS reaction plate. The purified 4-1BB antibody test sample obtained in Example 2 was added, 100 microliters per well and incubated on ice for 2 hours. […] It was washed three times with FACS buffer by centrifugation, and 100 μl of fixative [4% (v/v) paraformaldehyde] per well was added to suspend cells, and washed twice with FACS buffer after 10 minutes by centrifugation. The cells were suspended with 100 microliters of FACS buffer, and the results were detected and analyzed with FACS (FACS Calibur, purchased from BD).

[4] = biological target: T3, human 4-1BB, full length, on …; assay: FACS, CHOK1-h4-1BB cells; Ab 0.00013 ug/ml
Text: as §2

[5] = biological target: T4, monkey 4-1BB on CHOK1 cells (monkey); assay: FACS, CHOK1-c4-1BB cells; Ab 0.016 ug/ml
T4 construct: whole, on cells; also called CHOK1-c4-1BB
Text: as §2

[6] = biological target: T1, hFc-tagged human 4-1BB extracellular …; assay: ELISA, coated human 4-1BB-hFc; Ab 0.4 ug/ml
Method: as §1

[7] = biological target: T4, monkey 4-1BB on CHOK1 cells; assay: FACS, CHOK1-c4-1BB cells; Ab 0.0032 ug/ml
Text: as §2

[8] = biological target: T1, hFc-tagged human 4-1BB extracellular …; assay: ELISA, coated human 4-1BB-hFc; Ab 0.0006 ug/ml
Method: as §1

monkey 4-1BB-his protein [9] = biological target: T2, monkey 4-1BB-his protein; assay: ELISA, coated monkey 4-1BB-his; Ab 10 ug/ml
Method: as §1

[10] = biological target: T1, hFc-tagged human 4-1BB extracellular …; assay: ELISA, coated human 4-1BB-hFc; Ab 0.0001 ug/ml
Method: as §1

[11] = biological target: T4, monkey 4-1BB on CHOK1 cells; assay: FACS, CHOK1-c4-1BB cells; Ab 0.08 ug/ml
Text: as §2

[12] = biological target: T4, monkey 4-1BB on CHOK1 cells; assay: FACS, CHOK1-c4-1BB cells; Ab 0.00064 ug/ml
Text: as §2

[13] = biological target: T1, hFc-tagged human 4-1BB extracellular …; assay: ELISA, coated human 4-1BB-hFc; Ab 0.0032 ug/ml
Method: as §1

[14] = biological target: T1, hFc-tagged human 4-1BB extracellular …; assay: ELISA, coated human 4-1BB-hFc; Ab 0.08 ug/ml
Method: as §1

monkey 4-1BB-his protein [15] = biological target: T2, monkey 4-1BB-his protein; assay: ELISA, coated monkey 4-1BB-his; Ab 0.0001 ug/ml
Method: as §1

OD450 nm [1]: 2.67 OD450 nm
OD450 nm (monkey 4-1BB-his protein [2]): 0.08 OD450 nm
average fluorescence intensity [3]: 252 MFI
average fluorescence intensity [4]: 4.1 MFI
average fluorescence intensity [5]: 9.9 MFI
OD450 nm [6]: 2.69 OD450 nm
average fluorescence intensity [7]: 4.5 MFI
OD450 nm [8]: 0.09 OD450 nm
OD450 nm (monkey 4-1BB-his protein [9]): 1.98 OD450 nm
OD450 nm [10]: 0.06 OD450 nm
average fluorescence intensity [11]: 26.6 MFI
average fluorescence intensity [12]: 3 MFI
OD450 nm [13]: 0.26 OD450 nm
OD450 nm [14]: 2.47 OD450 nm
OD450 nm (monkey 4-1BB-his protein [15]): 0.07 OD450 nm
B1: 258F5A8 (antibody, V domains shown)
VH: QVQLVESGGGVVQPGRSLRLSCAASGFTFSSYGMHWVRQAPGKGLEWVAVIWYDGSNKYYADSVKGRFNISRDNSKNTLYLQMNSLRAEDTAVYYCARGPYLYSSGWYDYYYYGMDVWGQGTTVTVSS
VL: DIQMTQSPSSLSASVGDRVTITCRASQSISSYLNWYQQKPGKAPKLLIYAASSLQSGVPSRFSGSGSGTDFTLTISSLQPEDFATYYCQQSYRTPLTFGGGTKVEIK

OD450 nm [1]: 2.8 OD450 nm
OD450 nm (monkey 4-1BB-his protein [2]): 0.07 OD450 nm
average fluorescence intensity [3]: 252 MFI
average fluorescence intensity [4]: 3.9 MFI
average fluorescence intensity [5]: 9.3 MFI
OD450 nm [6]: 2.79 OD450 nm
average fluorescence intensity [7]: 4.3 MFI
OD450 nm [8]: 0.11 OD450 nm
OD450 nm (monkey 4-1BB-his protein [9]): 1.83 OD450 nm
OD450 nm [10]: 0.07 OD450 nm
average fluorescence intensity [11]: 25.4 MFI
average fluorescence intensity [12]: 2.9 MFI
OD450 nm [13]: 0.33 OD450 nm
OD450 nm [14]: 2.64 OD450 nm
OD450 nm (monkey 4-1BB-his protein [15]): 0.07 OD450 nm
B2: 259G10E11 (antibody, V domains shown)
VH: B1 VH with N69T
VL: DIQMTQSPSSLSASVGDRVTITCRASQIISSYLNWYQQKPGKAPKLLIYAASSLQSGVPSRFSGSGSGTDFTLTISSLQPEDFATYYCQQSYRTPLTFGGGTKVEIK

OD450 nm (monkey 4-1BB-his protein [2]): 0.25 OD450 nm
average fluorescence intensity [3]: 389 MFI
average fluorescence intensity [4]: 4.9 MFI
average fluorescence intensity [5]: 63.5 MFI
average fluorescence intensity [7]: 15 MFI
OD450 nm (monkey 4-1BB-his protein [9]): 2.42 OD450 nm
average fluorescence intensity [11]: 166 MFI
average fluorescence intensity [12]: 5.6 MFI
OD450 nm (monkey 4-1BB-his protein [15]): 0.08 OD450 nm
B3: 57B3D10 (antibody, V domains shown)
VH: QVQLQESGPGLVKPSETLSLTCTVSGGSISSYYWSWIRQPPGKGLEWIGYIYYSGSTNYNPSLKSRVTISVDTSKSQFSLKLTSVTAADTAVYYCAKDSDYYGSGSYSYWYFDLWGRGTLVTVSS
VL: EIVMTQSPATLSVSPGERATLSCRASQSVSSNLAWYQQKPGQAPRLLIYGASTRAPGIPARFSGSGSGTEFTLTISSLQSEDFAVYYCQQYNNWPLTFGGGTKVEIK
notes: also called 4-1BB fully human antibody 57B3D10

OD450 nm [1]: 2.74 OD450 nm
OD450 nm (monkey 4-1BB-his protein [2]): 0.07 OD450 nm
average fluorescence intensity [3]: 356 MFI
average fluorescence intensity [4]: 4 MFI
average fluorescence intensity [5]: 8 MFI
OD450 nm [6]: 2.75 OD450 nm
average fluorescence intensity [7]: 3.8 MFI
OD450 nm [8]: 0.1 OD450 nm
OD450 nm (monkey 4-1BB-his protein [9]): 0.87 OD450 nm
OD450 nm [10]: 0.07 OD450 nm
average fluorescence intensity [11]: 21.1 MFI
average fluorescence intensity [12]: 2.8 MFI
OD450 nm [13]: 0.3 OD450 nm
OD450 nm [14]: 2.59 OD450 nm
OD450 nm (monkey 4-1BB-his protein [15]): 0.07 OD450 nm
B4: 263A11E3 (antibody, V domains shown)
VH: QVQLQESGPGLVKPSETLSLTCAVSGYSISSGYYWGWIRQPPGKGLEWIGSIYHSGSTSYNPSLRSRVTISVDTSKNQFSLKLSSVTAADTAVYYCARDAGGFDYWGQGTLVTVSS
VL: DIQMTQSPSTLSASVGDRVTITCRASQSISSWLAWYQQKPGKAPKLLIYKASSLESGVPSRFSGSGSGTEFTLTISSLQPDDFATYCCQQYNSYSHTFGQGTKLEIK

OD450 nm [1]: 2.76 OD450 nm
OD450 nm (monkey 4-1BB-his protein [2]): 0.24 OD450 nm
average fluorescence intensity [3]: 199 MFI
average fluorescence intensity [4]: 2.6 MFI
average fluorescence intensity [5]: 77.9 MFI
OD450 nm [6]: 2.77 OD450 nm
average fluorescence intensity [7]: 20.7 MFI
OD450 nm [8]: 0.11 OD450 nm
OD450 nm (monkey 4-1BB-his protein [9]): 2.48 OD450 nm
OD450 nm [10]: 0.07 OD450 nm
average fluorescence intensity [11]: 303 MFI
average fluorescence intensity [12]: 6.6 MFI
OD450 nm [13]: 0.33 OD450 nm
OD450 nm [14]: 2.62 OD450 nm
OD450 nm (monkey 4-1BB-his protein [15]): 0.08 OD450 nm
B5: 119B6G5 (antibody, V domains shown)
VH: EVQLLESGGGLVQPGGSLRLSCAASGFTFSNYAMSWVRQGPGKGLEWVSTIIGSGDSTYYTDSVKGRFTISRDNSKNTLFLQMNSLRAEDTAVYYCARDKSGWYYFDYWGQGTLVTVSS
VL: DIQMTQSPSTLSASVGDRVTITCRASQSISNWLAWYQQKPGKAPKLLIYKASSLESGVPSRFSGSGSGTEFTLTISSLQPDDFATYYCQQYNDYFPITFGQGTRLEIK

OD450 nm [1]: 3.61 OD450 nm
average fluorescence intensity [3]: 322 MFI
average fluorescence intensity [4]: 4.2 MFI
average fluorescence intensity [5]: 37.3 MFI
OD450 nm [6]: 3.55 OD450 nm
average fluorescence intensity [7]: 12 MFI
OD450 nm [8]: 0.19 OD450 nm
OD450 nm [10]: 0.17 OD450 nm
average fluorescence intensity [11]: 156 MFI
average fluorescence intensity [12]: 4.8 MFI
OD450 nm [13]: 0.52 OD450 nm
OD450 nm [14]: 3.35 OD450 nm
B6: 15G10D4 (antibody, V domains shown)
VH: QVQLVESGGGVVQPGRSLRLSCAASGFSFSSYAMHWVRQAPGKGLEWVAIIWYDGSNQYYADSVKGRFTISRDNSKNTLYLQMNSLRAEDTAVYYCARVKQWLVSYFDYWGQGTLVTVSS
VL: EIVMTQSPATLSVSPGERATLSCRASQSVSSNLAWYQQKPGQVPRLLIYGASTRATGIPARFSGSGSGTEFSLIISSLQSEDFAVYYCQQYNNWPTFGGGTKVEIK

OD450 nm (monkey 4-1BB-his protein [2]): 0.14 OD450 nm
average fluorescence intensity [3]: 154 MFI
average fluorescence intensity [4]: 2.7 MFI
average fluorescence intensity [5]: 51.5 MFI
average fluorescence intensity [7]: 15.1 MFI
OD450 nm (monkey 4-1BB-his protein [9]): 2.36 OD450 nm
average fluorescence intensity [11]: 182 MFI
average fluorescence intensity [12]: 5.5 MFI
OD450 nm (monkey 4-1BB-his protein [15]): 0.07 OD450 nm
B7: 113F6C6 (antibody, V domains shown)
VH: QVQLVESGGGVVQPGRSLRLSCAASGLTFSSYGMHWVRQAPGKGLEWVAVIWYDGSNKYYADSVKGRFTISRDNSKNTLYLQMNSLRAEDTAVYYCAREEVLWFGELSYNYYYGMDVWGQGTTVTVSS
VL: DIQMTQSPSSLSASVGDRVTITCRASQGISNYLAWYQQKPGKVPKLLIYAASTLQSGVPSRFSGSGSGTDFTLTISSLQPEDVATYYCQKYNSVPLTFGGGTKVEIK
notes: also called 4-1BB fully human antibody 113F6C6; 113F6F6
